# Laboratory results: the DeepSol protein solubility set
# Assay: soluble on expression in E. coli; label from the status in PepcDB or PDB records
row,Sequence,soluble on expression in E. coli
1,MGSDKIHHHHHHLLQRTFNIQHHSSLPLLSILSYFPTSLLKPGGRMAIVLPQGRFNNSSDKNIRDFIAERCRILAVVGLHGNTFKPHTGTKTSVLFVQKWNDDPKAGALCPRQDDYNIFFATMRKSGKDNSGDKIWRKISSSTASPPDDELSDLMPPSPVQRVVGVEGDFLRDNHEHLVVDHDLYNHEGKTEDGIAEAFIEFAKKENFSFFELSPSVTPFDAVKYQQLMDGLEAVEVSLNQALDHNLHFRFDSEFFKRIYFQVEAEIKALPHTRLSSTQPIIIHPTEIKREYVEDDSSGVLFFRTQNLRPLRVDLSNQVYISEEDAAKLSKNIIQKNDVLITITGANFGDTLIFKGEIEAIALSHVFILRNKKISQSFLAVFLNTFYGREQINKGMYGGV,not soluble
2,MGSDKIHHHHHHLSITKPHTTVLLTGATGNWGRATLRELSSRSDRVTVLVLSLPGEKDKAVLSEFSAMENLDVVWGDLTDYATVATCVARADVVLHVGAVVSPLADEQPELATRVNVGSMRNIIRAVKAQPDPSRIRVVGVGSVAQTGNRNPPLHWGRVGDPIRVSRFDAYGQSKVTAERELVEAGLPTWVWLRQTGIFHPGMLEIRDPIMTHSPFAGVMEWVSAQDSARLLANLCEPDVPGELWGGVYNIGGGEGWRLSNWQLQTAIGQAVGVKDIRKWYDRNWFALKNFHGQWYTDSDRLHALVPFRQDTFESALARALATAPSSVRNAGKVPAWIVKHLVMKPLSRKPRGTMAAIRSGTDQEVSAHFGSLPEWRSIGDWSTFEPPAPSRTPSYLDHGYDENKPASEWSAIDYLEAAAFRGGRLLTEDVNPGLPSAPLMWSCGAGHEFAASPRLVLQAGHWCPACTADPAGYDRQAEHNKFLAQVIDA,not soluble
3,MGSDKIHHHHHHLTTVLNASPQRFVNTPAVQRIAQRALRYLQSGFSIHLRGAAGVGKTTLAMHLADLLNQPIILLFGDDEFKTSDLIGNQLGYTRKKVVDNFIHSVIKVEDEVRQHWVDARLTLACKEGFTLVYDEFNRSHPEVNNVLLSVLEERLLVLPTNQHRAEYIRVHPQFRAILTSNPQEYCGVHATQDALMDRVITIDMPTPDELSQQEIVVHKTGIDSEKAEVIVRIVRTFWSRSGSGQGGGLRSCLMIAKICHEHEISVNPGDPSFQDICADILLSRTNQPLIEATRLLEEVLSEFYHRINTQSQPSEIIPNNQNQIVLEQRVPYEHEVYNYLCNSPGRRFSELAVELGIDRSQIVAALKSLREQGVLVQMQGNAESPSISQTVAFDSGHLINK,not soluble
4,MGSDKIHHHHHHLTYDEIKKNKEVCECLKKGNENLGVLGFTDHSVAHCTMVAKRAAYILKKFGYSESDIEMVKIAGFMHDIGNVVNRSRHAEYGAILANEILKETDMSLKDRITVVSAIGHHDESTGGATDPISAALIIADKTDVRRNRVRNKAKENFDIHDRVNYAVTDAALKINMDKKVIALNLQIDTKICSMYEYFEIFLGRMMMCRGAAEVLGATFKLTANGSKVL,not soluble
5,MGSDKIHHHHHHLYFLDNQLAQQIVDRTMAIIGHNINVMNSQGVILGSGEPHRIGSTHEGALLAISQNRTVELNSASAASLQGVKPGINLPLHYQGEIIGVIGITGEPEHLKAFGELLKMTAEMIVEQANSLDVAQWRARQQEEFILQLIKPEGRDLNHLKIWAQRLDIDLEMPRVAAVLRISDDAGDELANSQLKTVLHLLETPSRGNLIAMTSMTELVILKPAFLDGKAWSAEAESLRIDRLLKRLPSELNARLKISLGHYFPATMDINRSYQTALETLNFGQQLHPEQSKYLYEDHALLVMLSGLKHDWRGEQLLRPFQRLIDRDKNALLRKTLASYLGHFGDQQACAKALFIHRNTLRYRLDKIAQITKVDIQKLDGLLQLYLGQVLLSRGQDQG,not soluble
6,MGSDKIHHHHHHLYNQPEVALEKYELTVSRIIKGRGAYICDTGIGQKLLVPYRGHEQRACTLRDTLAFIQRNGMDVEQISQTKEQCIISRDNCEDAYILKDYRAGRECSTDSIDDMRGGSRALAQLHNILEKYPLPSDIEVESLYEKAQRKCAQIVKLKNYILRRSKTNAFEHLFYECYERFLEQGQKSAEILCELENSKTSVPIYCHGAFNQHNVVYTQSGRWLPVNFETMHPGYPETDLAEYMRKMLEKNHWDTAVADAILDSYCSVRSLDDTSMRLLQALLLFPEKFCKLCNHYSNSRKSWVCDRDVDKLAQLIQLSGEREEYLHALQAIV,not soluble
7,MGSDKIHHHHHHMAALENKIDFAIAFAVNNANPNGDPLNGNRPRTTSEGLGEVSDVALKRKIRNRLQDAGESVFVQSDDRSDDGAKSLSDRFNTYLKTLPKDEQKQKNVVFGKVCERWLDVRSFGQVFAFKKAKDTDEVSIGVRGPVSIQPAFSINPIAIDDVQITKSVNSETTDSGKKSSDTMGMKYRVSGRAVYVTYGSISPQLAERTGFSAEDAEKIKEALVTLFENDESSARPSGSMEVLDVVWFAHNCKGGQYSSAKVHRSVSVDADGTVNVDDASIPGLRYEVIEGR,not soluble
8,MGSDKIHHHHHHMADGTSLSIDAKPTEEFSVREVFGIDTDMKVKGFAEPTDRVPAIDPTYKFDPDTTLAILAGYGYNRRVMVQGYHGTGKSTHIEQVGARLNWPTVRVNLDSHISRIDLIGKDAIKLRDGKQVTEFHEGILPWALRNPVAIVFDEYDAGRADVMFVIQRVLETDGKLTLMDQNEIITPNPCFRLFATANTVGLGDTTGLYHGTQQINQAQMDRWSLVATLNYLRHDAEVNIVLAKCPHYNTETGRKTMNQMVTVADLTRTAFMNGELSTVMSPRTVINWAQNAEIFRDVGYAFRVSFLNKCDELERQTVAEFYQRCFDEELPESAASMSLG,not soluble
9,MGSDKIHHHHHHMADQMQWANALSTRHSLEAAVTDVVERAVSLLTAPADLGLVFISSAFTSEYSRLLPLLAEKLSVPVLIGCSGGGVIGTTVNGEIQELEAEPAISLTLAHLPGVKVQVFHVVAEELPDLDSSPDAWVDLIGVPASPTPQFILLSSSFASGINDLLQGLDFAYPGSVIVGGQASGGGMGGRVALFCNESDGEECQSLYREGTVGIALTGNIVLETIVAQGCRPIGKPLQVTKADRNIILELDEQVPLVVLRDLIASLSEHERTLAQHSLFVGVAMDEFKLALQQGDFLIRGILGVDPTAGAIAIGDRVRPGQRLQFHLRDAQASAEDLELLLQSYQTQRESEPSAVAALMFACLGRGEGLYGKPNFDSELFRRYLSDIPVGGFFCGGEIGPVGGRTFLHAYTSAFGICRQNQL,not soluble
10,MGSDKIHHHHHHMADTFLFRVHRSQILPALNAVFEAVDPRSNIPILQNVLLSPNAERLRLSGTNMTVEVETSCDLLESASGNPLTLSGKALLDIVKSFSEVAEIEFSFDDLRGQVRVKSGRSRFLLATLHADQFPTIASLASGKSVAVDMPSLISAIARVKYALFDHKDRAYLSGIFIHPEEGENKIAVVAADGHNLAVVRFPCEAGTTFPGAIIPIKAIDAIRRLFGETKASAQVKISDEMIQICCHDVRLTSKLIDAVYPDYDVAIPKDNTSRIIVDAKHLINAVHRVCLVKKDDKRDTIKLVGSNGMLQVSMAATDGEEAVEEIAAEYNGPQIRIGFNGDYLKDALSSIKTTDVAINLLTESSPGLLTPTVGTDELYVVYPRVLPHD,not soluble
11,MGSDKIHHHHHHMAEFTHLVNERRSASNFLSGHPITKEDLNEMFELVALAPSAFNLQHTKYVTVLDQDVKEKLKQAANGQYKVVSSSAVLLVLGDKQAYQQAADIYEGLKVLGILNKQEYDHMVQDTVSFYENRGEQFKRDEAIRNASLSAMMFMLSAAAAGWDTCPMIGFDAEAVKRILNIDDQFEVVMMITIGKEKTESRRPRGYRKPVNEFVEYM,soluble
12,MGSDKIHHHHHHMAESSFVYNGVEITWLKHAGFRIKGSRVVYIDPYDIPEELEKADVILVTHDHFDHMDVKSIRKLSKDDTVVVHPSGCIIEGFESCEVGVGTEAEVKGVKIKAVPAYNVDKPFHKENCVGYIVGIDGVKIYHAGDTDRIPEMKEIEVDIALLPVGGTYTMNLQEAIEAAKDIRAKYYIPMHFGAIPQTSADPEEFKRKVKGAVILKPLF,not soluble
13,MGSDKIHHHHHHMAFTSDSLAIFLAVLDAGSFSAAARKLGRVPSAVSMAIAQLEAELDLPLFDRATRKALPTNAALALEPQARQVICQLNLLDAQALQLHKGLEKRLTIAMAPELQTGRWSQPLEILAQAFPSLEVEVRSATQTEAIRLLHDGSVQLALVFERPGIDERESFLEAGSQLLVAVASPRHPAGQNSGSPLPEEAFAEQRQIIVASGKATGSDPRMVLSRRIWLTDSYLATLDLVQSGLGWAYLPQPLVEPLIASGALAEVRFDNMANRLRLWVDIIWIKSRPLGLGARRYLEVMRQLFEKEPPRA,not soluble
14,MGSDKIHHHHHHMAGVMSRRLDVDALRALVAIERHGGVTRAAEILGLSQSAVSHKIRRLETSLDCEILTRKANAPMFTTAGQDLLGYARRILGIHDEAVLSLSKSPLQGKIALGMTEDTTCTDLSRILGRFRRLYPEVSVRTQVRMSLVLQEQLSQGALDAAIIQVFQHEVRPADILLFRETLHWVKSRDLVLSAGKPVPFLSFDENCFYRRWGIDVGQDEDTVLETVFECSSAAGIIAGVTAGLGVALLSQRYLQPAMEIVDDKFPKPPDLAYVIRRARVPRNPALETLVREIEAEVKRYGTLQIAV,not soluble
15,MGSDKIHHHHHHMAHAHQKSDPHTVDFQVDPVVLELGQRFVDAGYELSLVGGPVRDLFLGRRSPDLDFTTDATPDQTLALIRKWADNFWEIGKAFGTIGMRKSGFQIEITTYRAEAYDPESRKPMVAFGSSLTDDLLRRDFTINAMALRLPSMELIDPFGGVRDLHASVLATPGAPETSFSDDPLRMMRAARFAAQLGVAVRGDVKHAMSQMAERISIISAERVREELVKLICGAHPRVGIDLLVDTGLAEFVLPEVSALRLEADEHHRHKDVYQHSLQVLEQAASLETDSDGAVPGPDFVLRFAALMHDVGKPATRRFEPGGAVSFRHHDMVGSKLTKKRMKALRFDNDTIKAVARLVELHMRFYGYGEAGWSDSAVRRYVTDAGPLLERLHRLTRSDVTTRNQRKADRLSFAYDDLEARIAALREQESLEAVRPDLDGGQIMALLGLKPGPVVGKAYKFLLEQRMEHGPLDPVVAEARLREWWADQPEAAEHQPAAGVELSTTEES,not soluble
16,MGSDKIHHHHHHMAIDLLNIARTGVLASQSQLGVTSNNIANANTVGYHRQVATQTTLDSQRLGSSFYGTGTYVSDVKRIYNDYAARELRIGQTTLSAAEASYGKLSELDQIFSQIGKVVPQSLTDLFAGLNSLADLPADLGIRSSTLNDAKQLANSLNQMQSTLNGQLNQTNDQITGMTKRINEISTELANLNLELMKSPNQDPILLDKQDALVQELSQYAQVNVIPLENGAKSIMLGGSIMLVSGEVAMSMSTATGDPFPNELQLMSSIGSQSVKADPSKLGGQLGALFEYRDQTLVPASLELDQLALGVADSFNKLQAQGFDLNGQVGANMFKDINDPLMSLGRVGGFTDNTGNATLGVNIDDTSALTGGSYELSFTAPSTYELRDTQRARLLRLP,not soluble
17,MGSDKIHHHHHHMAIYEARGFSSYLYPYKGPLEPFDYIAQFRPLKPPEDIDIEEYKRTQAPYCLSGKVTAEKNGSYKRNNASLVYRDLIFLDYDEIETGVNLPKIVSQTLWEYSYIIYPTIKHTPEKPRYRLVMKPSDVMTEATYKQVVKEIADKIGLPFDLASLTWSQLQGLPVTTGDPEDYQRYVNHGLDYPVPKNGSTPNRQVVTTYTPRPRSQRSITMRVIDTLFNGFGNEGGRNVALTKFVGLLFNKWVDCDLETAYELVQIANSVTTKPLPIDEIDRTFTSIAKAEYRKRG,not soluble
